# Test results reported in the supplement of paper PMC7125110.
# ± gives the standard error. This sample holds only a part of the variants without activity.
# B1: glmS ribozyme (parent)
# chain: AUAAAAGCGCCAGAACUACAGAAAUGUAGUUGACGAGGAGGAGGUUUAUCGAAUUUUCGGCGGAUGCCUCCAAA
# Legend:
# Settings in all cases: with glucosamine-6-phosphate
# glucosamine-6-phosphate [1] = variants of: B1; assay: self-cleavage kobs at 160 uM GlcN6P; higher = faster cleavage; RNA array
# Method in brief: (§1)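 A hybridised Cy3 probe tracked barcoded ribozyme variants, transcribed in situ by E. coli RNA polymerase on sequenced MiSeq chips, at 37 °C. The variants received 40 μM to 10 mM glucosamine-6-phosphate in HEPES/KCl/Mg(OAc)2 buffer. kobs came from decay fits and kcat and KM from weighted Michaelis–Menten fits.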
# glucosamine-6-phosphate [2] = variants of: B1; assay: self-cleavage kobs at 2500 uM GlcN6P; higher = faster cleavage; RNA array
# Method in brief: as §1
# glucosamine-6-phosphate [3] = variants of: B1; assay: self-cleavage kobs at 640 uM GlcN6P; higher = faster cleavage; RNA array
# Method in brief: as §1
# glucosamine-6-phosphate [4] = variants of: B1; assay: self-cleavage kobs at 10000 uM GlcN6P; higher = faster cleavage; RNA array
# Method in brief: as §1
Variant,self-cleavage kobs at 160 uM GlcN6P (glucosamine-6-phosphate [1]) [s⁻¹],self-cleavage kobs at 2500 uM GlcN6P (glucosamine-6-phosphate [2]) [s⁻¹],self-cleavage kobs at 640 uM GlcN6P (glucosamine-6-phosphate [3]) [s⁻¹],self-cleavage kobs at 10000 uM GlcN6P (glucosamine-6-phosphate [4]) [s⁻¹]
G32C A39C U45A U56G,< 1e-05,,,
G35C U69G,< 1e-05,< 1e-05,,
G43C C67U,< 1e-05,< 1e-05,,
A42G G62C,< 1e-05,< 1e-05,< 1e-05,< 1e-05
U46G U49A,< 1e-05,< 1e-05,< 1e-05,< 1e-05
G38C U54G,< 1e-05,,< 1e-05,< 1e-05
G7A A48G,< 1e-05,< 1e-05,,< 1e-05
G26A C70A,0.000106 ± 2.6e-05,,,
U31A A52C,< 1e-05,< 1e-05,,
G41A C50G,< 1e-05,< 1e-05,< 1e-05,< 1e-05
G7C C16G,< 1e-05,,< 1e-05,< 1e-05
A12U U47C U65C,< 1e-05,,,
C10G U45C,< 1e-05,< 1e-05,,
G43C U55A A64U,< 1e-05,,,
C8G C10U G51U A53U,< 1e-05,,< 1e-05,
C8U U30C G59U,< 1e-05,< 1e-05,< 1e-05,
C10U A12U G44A U49C C70G,< 1e-05,< 1e-05,< 1e-05,
A14C G40U G59U C61U,< 1e-05,,,
C8G U56A G62U,< 1e-05,< 1e-05,< 1e-05,
C10U U65G,< 1e-05,,,
G7C C8U A15G G35A,< 1e-05,< 1e-05,,
G35A G41C,< 1e-05,,< 1e-05,
C58G C70A,0.000411 ± 0.00017,5.93e-05 ± 1.4e-05,4.04e-05 ± 1.9e-05,
A12C A14U G44U U45A,< 1e-05,,,
G38C A39G,< 1e-05,,< 1e-05,
G35A G41C U69A,< 1e-05,< 1e-05,< 1e-05,
A15G G63A,< 1e-05,< 1e-05,< 1e-05,< 1e-05

Variant,self-cleavage kobs at 160 uM GlcN6P (glucosamine-6-phosphate [1]) [s⁻¹],self-cleavage kobs at 2500 uM GlcN6P (glucosamine-6-phosphate [2]) [s⁻¹],self-cleavage kobs at 640 uM GlcN6P (glucosamine-6-phosphate [3]) [s⁻¹],self-cleavage kobs at 10000 uM GlcN6P (glucosamine-6-phosphate [4]) [s⁻¹]
C10U A39U A64U C70G,< 1e-05,,< 1e-05,
G29C G32C G37U U45G,< 1e-05,< 1e-05,< 1e-05,
U31A G62C C71U,< 1e-05,,< 1e-05,
U46G C58G U69G,6.07e-05 ± 2.5e-05,,,
A15U G60U C61U,< 1e-05,,,
G7U G62A C67A,< 1e-05,< 1e-05,< 1e-05,
G13A G43A,< 1e-05,,< 1e-05,< 1e-05
A33U C68A C70G,< 1e-05,< 1e-05,,
A15G U46G G66A C68U,6.94e-05 ± 1.7e-05,0.00078 ± 0.00029,0.000307 ± 0.00014,
U30C G59U,< 1e-05,< 1e-05,< 1e-05,< 1e-05
G32U A48G G63C,< 1e-05,< 1e-05,,
G13U A14C G32A U46C G63A C68U U69G C71U,< 1e-05,,< 1e-05,
G41U C68U U69C,< 1e-05,< 1e-05,< 1e-05,
G29C A48C G62U,< 1e-05,< 1e-05,< 1e-05,
G9U G41C U47G,< 1e-05,< 1e-05,< 1e-05,
A6U A14U G38U C50A G51U A53C G63A,< 1e-05,,,
G7U G41U G59U A64G,< 1e-05,< 1e-05,,< 1e-05
U54C U56A G59C U65A,< 1e-05,< 1e-05,,
G32A A42G U56A C70A,< 1e-05,,,
C34G A36C G38U A64C,< 1e-05,,,
G32C G44A A48U,< 1e-05,< 1e-05,< 1e-05,
G7A A48U A53U U65A,< 1e-05,,< 1e-05,
A6G A33U U57C C58A,< 1e-05,,< 1e-05,
A15C A48C,< 1e-05,,,4.99e-05 ± 1.2e-05
C10U A12G G35C,< 1e-05,,,
A12G G35U A53U,< 1e-05,,,< 1e-05
C34U G43U C50A G51U U55G,< 1e-05,,,

Variant,self-cleavage kobs at 160 uM GlcN6P (glucosamine-6-phosphate [1]) [s⁻¹],self-cleavage kobs at 2500 uM GlcN6P (glucosamine-6-phosphate [2]) [s⁻¹],self-cleavage kobs at 640 uM GlcN6P (glucosamine-6-phosphate [3]) [s⁻¹],self-cleavage kobs at 10000 uM GlcN6P (glucosamine-6-phosphate [4]) [s⁻¹]
G38A A64G C67U,< 1e-05,,,
A14C G29A U56C U57G,< 1e-05,,< 1e-05,
G38A G44U C58A,< 1e-05,< 1e-05,< 1e-05,
G9C A36C,< 1e-05,< 1e-05,< 1e-05,< 1e-05
U30G G32A A48G G62C,< 1e-05,< 1e-05,< 1e-05,
C11G A15G U65C,< 1e-05,,,
U49C G62A,< 1e-05,,< 1e-05,< 1e-05
U49C G62U,< 1e-05,< 1e-05,< 1e-05,< 1e-05
U57A G60A,< 1e-05,,,
A48G U49C G60A,< 1e-05,< 1e-05,< 1e-05,
G9C U56G A64C,< 1e-05,< 1e-05,< 1e-05,
G29C G35A G59U A64G,< 1e-05,,,
A14G U45G A53U,0.000618 ± 0.00016,0.00337 ± 0.0012,0.00262 ± 0.00057,
G29A A36G C58A,< 1e-05,< 1e-05,< 1e-05,< 1e-05
A14C G38C,< 1e-05,< 1e-05,< 1e-05,< 1e-05
G32C G38U G43A C67A,< 1e-05,< 1e-05,,
C8G G40U C61A C71U,< 1e-05,,,
A48U G51U,< 1e-05,< 1e-05,,
A39G G62A,< 1e-05,< 1e-05,,< 1e-05
G7U A53C,< 1e-05,,< 1e-05,< 1e-05
A6U U45A A53C,< 1e-05,4.74e-05 ± 2.2e-05,4.01e-05 ± 1.9e-05,
A39C G60C,< 1e-05,,,< 1e-05
A12U G13U A48U G51C U54G C71U,< 1e-05,< 1e-05,< 1e-05,
A6C C8U C34A,< 1e-05,< 1e-05,< 1e-05,
A12G G40U G62A,< 1e-05,,,
C50U U56C C68U C70U,< 1e-05,,,
G7A C71G,< 1e-05,,,

Variant,self-cleavage kobs at 160 uM GlcN6P (glucosamine-6-phosphate [1]) [s⁻¹],self-cleavage kobs at 2500 uM GlcN6P (glucosamine-6-phosphate [2]) [s⁻¹],self-cleavage kobs at 640 uM GlcN6P (glucosamine-6-phosphate [3]) [s⁻¹],self-cleavage kobs at 10000 uM GlcN6P (glucosamine-6-phosphate [4]) [s⁻¹]
A15G C16A,0.000119 ± 4.3e-05,0.000524 ± 0.00013,0.000305 ± 7.7e-05,
G9A C16U G41A A48U,< 1e-05,< 1e-05,< 1e-05,< 1e-05
A12G U46G G59U,< 1e-05,< 1e-05,< 1e-05,
C10G U46A U55C,< 1e-05,< 1e-05,,
A15U U30G U46G C67G,5.03e-05 ± 1.7e-05,0.000146 ± 2.2e-05,6.26e-05 ± 1.3e-05,
U55A C58U,< 1e-05,,,7.74e-05 ± 6.6e-06
C50U C70G,0.000293 ± 0.00013,6.07e-05 ± 1.3e-05,8.51e-05 ± 1.6e-05,
U30A A48C C67G,< 1e-05,,,
A12U A14U U45A,0.000413 ± 0.0001,0.00242 ± 0.00082,0.00157 ± 0.00031,
G37A C50A C61G,< 1e-05,,< 1e-05,
A36U U57G,< 1e-05,< 1e-05,,< 1e-05
U30G G41C G60A,< 1e-05,< 1e-05,,
G40A A42C A48G,< 1e-05,< 1e-05,< 1e-05,< 1e-05
A14U G43A G63U C68U,< 1e-05,< 1e-05,,
A6C U57C,< 1e-05,< 1e-05,< 1e-05,< 1e-05
G13A U45C C50U C71G,< 1e-05,< 1e-05,< 1e-05,
C11G A14C U31G A33U,< 1e-05,< 1e-05,< 1e-05,
G32A A42G G43C G51U G66C,< 1e-05,,< 1e-05,
C16A G59U C68G,0.000107 ± 3e-05,,,
A39G U46G A53C,5.35e-05 ± 2.3e-05,,0.000315 ± 0.00012,
A39C U49A C61U C68G,< 1e-05,< 1e-05,,
G38A G60U,< 1e-05,< 1e-05,< 1e-05,< 1e-05
G35C G60U G62C,< 1e-05,,< 1e-05,
C8A C16U U31C G38A U56C,< 1e-05,,,< 1e-05
